Measured values reported in US20240122847A1, “ORAL POLYPEPTIDE FORMULATIONS” (Bhami's Research Laboratory, Pvt. Ltd., priority 2022, published 2024).

Experiment: Pharmacokinetics of hGH in minipigs, sugar truffle buccal/sublingual vs intravenous, plasma hGH ELISA
Type: in vivo
Conditions: for Mean hGH levels: pigs, plasma
[1] = minipigs, buccal/sublingual hGH formulation
[2] = minipigs, intravenous hGH formulation

Experimental: Pharmacokinetic analysis was conducted in Female Minipigs weighing 12±1 kg for 2 days. Pigs in the oral treatment group was either fasted overnight or fed prior to the test sample administration. All the test animals in the treatment groups were administered with respective test formulation to the pre-designated animals. The animal was restrained and its head was held vertically, the jaws were pulled away, the tongue was gently lifted with a forceps followed by placement of a polypeptide formulation as described herein buccally/sublingually. After placing a polypeptide formulation as described herein, the snout was held together for about 1-2 mins to prevent the chewing of the polypeptide formulation. The time of dosage of each animal was noted. […] Plasma samples collected at different time points were analyzed by ELISA kit according to Creative Diagnostics protocol. This kit is based on sandwich enzyme-linked immuno-sorbent assay technology. […] Standards, test samples, and biotin-conjugated reagent were added to the wells and incubated. The HRP-conjugated reagent was then added, and the whole plate was incubated. Unbound conjugates were removed using wash buffer at each stage. TMB substrate was used to quantify the HRP enzymatic reaction.
Pharmacokinetic endpoints were determined using noncompartmental methods using PK Solutions software. AUC was approximated using the trapezoidal rule on the observed concentrations. […] The terminal elimination rate constant (λz) was estimated by log-linear regression on the terminal part of the concentration-time curve, and t ½ was then calculated as t ½=ln 2/X z.

Substance: hGH: human growth hormone (human recombinant), Norditropin NordiFlex; lyophilized microparticles in sugar truffle shell
- AUC 0-inf/D_obs [1]: 49506.598 pg·h/mL/mg
- AUC 0-inf/D_pred [1]: 49536.628 pg·h/mL/mg
- AUC 0-inf_obs [1]: 123.766495 ng·h/mL
- AUC 0-inf_pred [1]: 123.84157 ng·h/mL
- AUC 0-t [1]: 118.956091 ng·h/mL
- AUC t-inf_obs [1]: 4.810404 ng·h/mL
- AUC t-inf_pred [1]: 4.885479 ng·h/mL
- AUMC 0-inf_obs [1]: 1203569.518 pg/ml*h^2
- AUMC 0-inf_pred [1]: 1208579.228 pg/ml*h^2
- AUMC 0-t [1]: 882575.168 pg/ml*h^2
- AUMC t-inf_obs [1]: 320994.350 pg/ml*h^2
- AUMC t-inf_pred [1]: 326004.060 pg/ml*h^2
- Cl/F_obs [1]: 0.000 (mg)/(pg/ml)/h
- Cl/F_pred [1]: 0.000 (mg)/(pg/ml)/h
- Clast_obs [1]: 0.25684 ng/mL
- Clast_pred [1]: 0.260848 ng/mL
- Cmax [1]: 27.12344 ng/mL
- Lambda_z [1]: 0.053 h⁻¹
- MRT 0-inf_obs [1]: 9.725 h
- MRT 0-inf_pred [1]: 9.759 h
- MRT 0-t [1]: 7.419 h
- Tlag [1]: 0.000 h
- Tlast [1]: 48.000 h
- Tmax [1]: 1.000 h
- Vz/F_obs [1]: 0.000 (mg)/(pg/ml)
- Vz/F_pred [1]: 0.000 (mg)/(pg/ml)
- t½ [1]: 12.982 h
- AUC 0-inf/D_obs [2]: 485023.532 pg·h/mL/mg
- AUC 0-inf/D_pred [2]: 479198.128 pg·h/mL/mg
- AUC 0-inf_obs [2]: 160.057765 ng·h/mL
- AUC 0-inf_pred [2]: 158.135382 ng·h/mL
- AUC 0-t [2]: 154.059131 ng·h/mL
- AUC t-inf_obs [2]: 5.998634 ng·h/mL
- AUC t-inf_pred [2]: 4.076251 ng·h/mL
- AUMC 0-inf_obs [2]: 1696005.242 pg/ml*h^2
- AUMC 0-inf_pred [2]: 1578826.575 pg/ml*h^2
- AUMC 0-t [2]: 1330359.118 pg/ml*h^2
- AUMC 0-t/0-inf_pred [2]: 0.843
- AUMC t-inf_obs [2]: 365646.123 pg/ml*h^2
- AUMC t-inf_pred [2]: 248467.457 pg/ml*h^2
- C0 [2]: 18.14454 ng/mL
- Cl_obs [2]: 0.000 (mg)/(pg/ml)/h
- Clast_obs [2]: 0.46304 ng/mL
- Clast_pred [2]: 0.31465 ng/mL
- Cmax [2]: 22.5132 ng/mL
- Lambda_z [2]: 0.077 h⁻¹
- MRT 0-inf_obs [2]: 10.596 h
- MRT 0-inf_pred [2]: 9.984 h
- MRT 0-t [2]: 8.635 h
- Tlast [2]: 48.000 h
- Tmax [2]: 0.500 h
- Vss_obs [2]: 0.000 (mg)/(pg/ml)
- Vz_obs [2]: 0.000 (mg)/(pg/ml)
- t½ [2]: 8.980 h
- Mean hGH levels (GI- IV, time 0 hrs): 18144.54 ± 1619.64 pg/mL
- Mean hGH levels (GI- IV, time 0.08 hrs): 20014.87 ± 620.32 pg/mL
- Mean hGH levels (GI- IV, time 0.5 hrs): 22513.2 ± 562.85 pg/mL
- Mean hGH levels (GI- IV, time 1 hrs): 22130.7 ± 728.54 pg/mL
- Mean hGH levels (GI- IV, time 4 hrs): 14910.13 ± 2908.87 pg/mL
- Mean hGH levels (GI- IV, time 8 hrs): 1159.19 ± 226.15 pg/mL
- Mean hGH levels (GI- IV, time 24 hrs): 1495.55 ± 291.77 pg/mL
- Mean hGH levels (GI- IV, time 48 hrs): 463.04 ± 90.34 pg/mL
- Mean hGH levels (GII- Buccal/sublingual, time 0 hrs): 20672.24 ± 1140.76 pg/mL
- Mean hGH levels (GII- Buccal/sublingual, time 0.08 hrs): 18582.31 ± 1303.34 pg/mL
- Mean hGH levels (GII- Buccal/sublingual, time 0.5 hrs): 26137.66 ± 4718.88 pg/mL
- Mean hGH levels (GII- Buccal/sublingual, time 1 hrs): 27123.44 ± 382.69 pg/mL
- Mean hGH levels (GII- Buccal/sublingual, time 4 hrs): 2681.8 ± 1281.33 pg/mL
- Mean hGH levels (GII- Buccal/sublingual, time 8 hrs): 2208.63 ± 86.73 pg/mL
- Mean hGH levels (GII- Buccal/sublingual, time 24 hrs): 971.98 ± 38.36 pg/mL
- Mean hGH levels (GII- Buccal/sublingual, time 48 hrs): 256.84 ± 13.49 pg/mL
